Results: US8993719B2, “Methods and compositions related to mutant Kunitz domain I of TFPI-2” (The Regents of the University of California, priority 2005, dated 2015)
Several values for one entry are separate records, joined by “and”; a condition that tells them apart may be missing. Identical values can stand only once. Entries after “also recorded” stand apart in the source; their conditions may differ.

Tests used:
Mouse plasmin [1] = target: Mouse plasmin (mouse, UniProt P20918 98-812, limits assumed); assay: mouse plasmin inhibition assay
Human plasmin [2] = target: T1, Human plasmin (Homo sapiens, UniProt P00747); assay: Plasmin inhibition assay (residual amidolytic activity, chromogenic substrate S-2251); type: biochemical; settings: for fold stronger binding to plasmin than WT KD1: relative to WT KD1
T1 construct: purchased Enzyme research laborotories
Description: Materials and methods: The chromogenic substrates H-D-Val-Leu-Lys-p-nitroanilide (S-2251) was purchased from DiaPharma Group Inc. (West Chester, Ohio). Human plasmin was purchased from Enzyme research laborotories. Bovine aprotinin (BPTI) was used from Zymogenetics. Escherichia coli strain BL21(DE3)pLys and pET28a expression vector were products of Novagen Inc. (Madison, Wis.). The QuikChange® site-directed mutagenesis kit was obtained from Stratagene (La Jolla, Calif.).
(§1) Plasmin Inhibition Assays. […] The chromogenic substrate S-2251 was then added, and residual amidolytic activity was measured in a Molecular Devices UVmax kinetic microplate reader at different end points (0.5 and 1 hr) and S2251 (0.5 and 1 mM) concentrations. Plasmin inhibitory data were analyzed according to the quadratic binding expression.

mouse plasmin [3] = target: mouse plasmin (Mus musculus, UniProt P20918); assay: Mouse plasmin inhibition; type: biochemical; settings: 1 μM inhibitor; FIG. 6
Description: Both WT KD1 and L26R inhibited mouse plasmin effectively. […] Since both the wild-type and the mutant inhibit mouse plasmin, one can use the mutant to show efficacy in vivo in an animal model of bleeding.

[4] = system: intrinsic pathway of blood coagulation; assay: aPTT (activated partial thromboplastin time) of normal plasma; type: biochemical; settings: normal human plasma, 5 min at 37° C., FIG. 5
Experimental: Seventy-five microliter of 25 mM CaCl2 prewarmed to 37° C. was then added and the time needed to form the clot through the intrinsic pathway of blood coagulation was noted.
A common procedure to test inhibition of clotting is to examine the aPTT (activated partial thromboplastin time) of normal plasma. In this test, surface activator plus phospholipid was mixed with normal plasma in equal amounts (75 microliter). […] Seventy-five microliter of 25 mM CaCl2 prewarmed to 37° C. was then added and the time needed to form the clot was noted.
In the aPTT system, coagulation is initiated by the activation of factor XII to Factor XIIa by contact phase involving the kallikrein system. Factor XIIa then activates factor XI to factor XIa in the coagulation cascade.

[5] = system: mouse tail vein bleeding model; assay: Mouse tail vein bleeding model; type: in vivo; settings: intravenously, about 100 microgram/mouse, compared to saline control
Description: A mouse tail vein bleeding model has been described to study the efficacy of a snake plasmin inhibitor (Masci et al. Blood Coagulation and Fibrinolysis 2000, Vol 11, pages 385-393). […] The doses of the plasmin inhibitors used in these experiments were similar to that used during human CPB (cardiopulmonary bypass) surgery, adjusted to the mouse weight. The Animal Ethics Committee of UCLA approved all mice experiments and the dose used in human surgery adjusted to mouse weight was a realistic basis for these initial studies. The serum BUN/Creatinine levels were normal after two days and seven days following administration of the drug.

kallikrein = kallikrein (Homo sapiens, UniProt P03952); settings: Petersen et al 1996; cited from earlier work
factor XIa = factor XIa (Homo sapiens, UniProt P03951); settings: Petersen et al 1996; cited from earlier work
Human plasmin [6] = target: T2, Human plasmin (human, UniProt P00747 97-810, limits assumed); assay: plasmin inhibition assay, residual amidolytic activity on S-2251
T2 construct: Bought enzyme
Experimental: as §1
In control experiments, it was first studied if there was any substrate-induced displacement of bound inhibitor by increasing substrate concentrations.

Human plasmin [7] = target: T2, Human plasmin; assay: plasmin inhibition assay, residual amidolytic activity on S-2251, quadratic binding fit
Experimental: as §1
(§2) The incubation time was 1 hr at 37° C. and substrate concentration was 1 mM for the remaining activity measurements.

Human plasmin [8] = target: T2, Human plasmin; assay: plasmin inhibition assay, 1 hr at 37° C., 1 mM S-2251
Experimental: as §1, §2

T1 sequence (P00747 581-810 limits assumed): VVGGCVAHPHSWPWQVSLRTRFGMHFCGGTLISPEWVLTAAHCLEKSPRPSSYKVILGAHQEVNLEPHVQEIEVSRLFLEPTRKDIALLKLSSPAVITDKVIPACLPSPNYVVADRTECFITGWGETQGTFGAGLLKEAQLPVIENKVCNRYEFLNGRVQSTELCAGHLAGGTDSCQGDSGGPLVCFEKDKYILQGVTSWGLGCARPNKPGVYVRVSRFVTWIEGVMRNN
T1 sequence (P00747 97-580 partner limits assumed): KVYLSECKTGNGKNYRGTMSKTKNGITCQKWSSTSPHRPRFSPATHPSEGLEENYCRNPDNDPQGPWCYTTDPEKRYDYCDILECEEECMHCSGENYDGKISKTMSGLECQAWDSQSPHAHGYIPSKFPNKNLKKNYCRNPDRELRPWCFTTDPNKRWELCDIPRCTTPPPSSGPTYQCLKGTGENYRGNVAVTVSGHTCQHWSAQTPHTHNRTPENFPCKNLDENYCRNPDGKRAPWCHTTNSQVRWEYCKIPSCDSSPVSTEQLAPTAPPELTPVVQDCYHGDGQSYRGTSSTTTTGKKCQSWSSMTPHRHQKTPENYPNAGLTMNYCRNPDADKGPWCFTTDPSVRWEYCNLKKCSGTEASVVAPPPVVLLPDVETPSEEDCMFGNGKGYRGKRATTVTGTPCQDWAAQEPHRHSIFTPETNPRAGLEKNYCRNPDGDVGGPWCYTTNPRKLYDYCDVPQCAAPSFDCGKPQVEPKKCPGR
T2 sequence (P00747 97-810 limits assumed): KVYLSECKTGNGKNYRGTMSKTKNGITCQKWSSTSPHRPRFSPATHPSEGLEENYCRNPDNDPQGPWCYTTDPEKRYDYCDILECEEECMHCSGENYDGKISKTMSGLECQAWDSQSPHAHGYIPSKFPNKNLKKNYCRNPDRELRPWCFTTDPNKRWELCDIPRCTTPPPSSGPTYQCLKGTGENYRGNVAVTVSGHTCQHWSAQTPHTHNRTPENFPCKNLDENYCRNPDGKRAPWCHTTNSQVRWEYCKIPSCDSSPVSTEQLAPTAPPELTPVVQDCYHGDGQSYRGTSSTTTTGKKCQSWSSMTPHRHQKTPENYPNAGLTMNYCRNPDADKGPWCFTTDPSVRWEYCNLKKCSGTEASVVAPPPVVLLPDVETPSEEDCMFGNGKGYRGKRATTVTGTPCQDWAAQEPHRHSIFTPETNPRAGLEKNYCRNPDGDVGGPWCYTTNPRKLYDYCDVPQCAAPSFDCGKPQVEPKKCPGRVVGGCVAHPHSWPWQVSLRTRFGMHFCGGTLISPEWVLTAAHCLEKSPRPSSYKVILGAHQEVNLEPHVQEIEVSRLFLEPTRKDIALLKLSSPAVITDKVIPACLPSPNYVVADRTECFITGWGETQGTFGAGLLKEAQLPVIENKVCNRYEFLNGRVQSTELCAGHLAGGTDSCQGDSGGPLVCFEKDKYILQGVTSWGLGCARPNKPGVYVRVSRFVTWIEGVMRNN
Chain of mouse plasmin (P20918 582-812 limits assumed): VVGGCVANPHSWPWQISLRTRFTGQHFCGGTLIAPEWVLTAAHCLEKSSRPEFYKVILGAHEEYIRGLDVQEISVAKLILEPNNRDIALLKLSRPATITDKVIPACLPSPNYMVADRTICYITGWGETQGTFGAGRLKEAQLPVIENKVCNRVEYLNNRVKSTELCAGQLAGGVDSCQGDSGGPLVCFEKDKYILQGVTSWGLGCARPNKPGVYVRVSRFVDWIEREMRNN
Chain of mouse plasmin (P20918 98-581 partner limits assumed): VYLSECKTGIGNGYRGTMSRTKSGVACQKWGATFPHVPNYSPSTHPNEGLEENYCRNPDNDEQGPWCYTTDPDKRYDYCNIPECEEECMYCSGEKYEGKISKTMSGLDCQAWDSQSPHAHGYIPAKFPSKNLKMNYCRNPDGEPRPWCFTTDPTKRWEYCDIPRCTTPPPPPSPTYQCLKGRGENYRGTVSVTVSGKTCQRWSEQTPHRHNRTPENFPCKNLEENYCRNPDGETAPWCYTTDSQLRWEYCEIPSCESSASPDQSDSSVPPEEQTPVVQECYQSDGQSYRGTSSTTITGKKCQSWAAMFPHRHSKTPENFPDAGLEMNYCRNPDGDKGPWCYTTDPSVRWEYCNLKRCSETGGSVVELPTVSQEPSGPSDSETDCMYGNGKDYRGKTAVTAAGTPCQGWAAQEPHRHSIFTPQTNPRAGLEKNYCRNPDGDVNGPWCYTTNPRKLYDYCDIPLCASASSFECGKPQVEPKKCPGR
Chain of Mouse plasmin (P20918 98-812 limits assumed): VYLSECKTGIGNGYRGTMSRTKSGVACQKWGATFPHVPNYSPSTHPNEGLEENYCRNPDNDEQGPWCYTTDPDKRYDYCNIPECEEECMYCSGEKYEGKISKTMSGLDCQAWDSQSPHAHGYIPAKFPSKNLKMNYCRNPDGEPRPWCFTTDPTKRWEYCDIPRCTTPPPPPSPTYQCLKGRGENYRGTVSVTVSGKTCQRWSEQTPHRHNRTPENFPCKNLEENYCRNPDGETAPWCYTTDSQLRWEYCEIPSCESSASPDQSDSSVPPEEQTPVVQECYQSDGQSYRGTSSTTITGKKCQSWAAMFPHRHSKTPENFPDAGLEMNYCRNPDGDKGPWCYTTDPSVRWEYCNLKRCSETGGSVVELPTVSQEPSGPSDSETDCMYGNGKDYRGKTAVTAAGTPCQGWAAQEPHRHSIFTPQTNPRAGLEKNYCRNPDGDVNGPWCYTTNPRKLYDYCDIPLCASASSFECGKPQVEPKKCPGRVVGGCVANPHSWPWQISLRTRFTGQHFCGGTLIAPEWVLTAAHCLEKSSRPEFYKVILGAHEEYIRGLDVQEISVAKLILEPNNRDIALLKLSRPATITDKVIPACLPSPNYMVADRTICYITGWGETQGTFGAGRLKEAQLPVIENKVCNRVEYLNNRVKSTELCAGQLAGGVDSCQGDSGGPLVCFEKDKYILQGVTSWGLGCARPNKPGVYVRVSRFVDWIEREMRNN
Chain of kallikrein (P03952 391-638 limits assumed): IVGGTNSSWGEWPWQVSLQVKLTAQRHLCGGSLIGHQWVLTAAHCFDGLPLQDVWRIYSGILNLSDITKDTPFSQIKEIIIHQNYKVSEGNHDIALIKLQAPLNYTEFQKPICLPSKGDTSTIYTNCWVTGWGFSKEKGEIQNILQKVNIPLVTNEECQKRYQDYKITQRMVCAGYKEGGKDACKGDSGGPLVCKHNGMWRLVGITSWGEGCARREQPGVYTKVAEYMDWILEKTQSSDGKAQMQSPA
Chain of kallikrein (P03952 20-390 partner limits assumed): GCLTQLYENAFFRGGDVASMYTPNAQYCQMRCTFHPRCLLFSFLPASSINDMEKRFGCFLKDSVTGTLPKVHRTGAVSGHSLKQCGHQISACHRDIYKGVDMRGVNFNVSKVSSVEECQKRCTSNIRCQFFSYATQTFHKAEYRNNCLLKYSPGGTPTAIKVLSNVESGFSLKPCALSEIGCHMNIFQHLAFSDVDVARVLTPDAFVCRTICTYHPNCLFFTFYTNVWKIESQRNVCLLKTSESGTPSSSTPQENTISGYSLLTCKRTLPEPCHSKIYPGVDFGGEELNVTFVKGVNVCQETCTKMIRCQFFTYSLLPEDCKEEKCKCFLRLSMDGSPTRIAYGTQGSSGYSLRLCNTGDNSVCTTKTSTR
Chain of factor XIa (P03951 388-625 limits assumed): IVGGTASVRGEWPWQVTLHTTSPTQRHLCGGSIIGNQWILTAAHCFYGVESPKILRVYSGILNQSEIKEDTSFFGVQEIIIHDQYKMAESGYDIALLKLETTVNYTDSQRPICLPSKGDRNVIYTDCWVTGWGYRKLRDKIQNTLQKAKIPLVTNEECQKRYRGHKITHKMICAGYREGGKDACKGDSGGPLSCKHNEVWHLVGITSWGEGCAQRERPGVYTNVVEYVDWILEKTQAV
Chain of factor XIa (P03951 19-387 partner limits assumed): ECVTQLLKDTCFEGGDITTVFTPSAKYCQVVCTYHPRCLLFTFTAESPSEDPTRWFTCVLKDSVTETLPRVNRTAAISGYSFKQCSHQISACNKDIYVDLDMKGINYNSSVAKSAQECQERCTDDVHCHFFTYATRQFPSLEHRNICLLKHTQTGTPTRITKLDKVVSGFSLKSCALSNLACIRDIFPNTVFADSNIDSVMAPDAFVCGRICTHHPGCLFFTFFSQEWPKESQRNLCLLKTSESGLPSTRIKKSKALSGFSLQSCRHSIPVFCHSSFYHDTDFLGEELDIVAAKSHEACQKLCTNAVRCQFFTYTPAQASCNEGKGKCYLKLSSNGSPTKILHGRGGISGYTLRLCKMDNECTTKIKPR

Molecule | Kd (Mouse plasmin [1]) | substrate-induced displacement of bound inhibitor (Human plasmin [2]; increasing S-2251 concentration (0.5 and 1 mM)) | inhibition of mouse plasmin at 1 μM (mouse plasmin [3]) | inhibition of intrinsic pathway of coagulation (prolongation of aPTT clotting time) ([4]; listed as KD1 WT) | reduction in blood loss [5] | inhibition of kallikrein (kallikrein) | inhibition of factor XIa (factor XIa) | Ki (Human plasmin [6]) | Kd (Human plasmin [7]) | fold stronger binding to plasmin than WT KD1 (Human plasmin [2]; listed as L17R) | inhibition of intrinsic pathway of coagulation (prolongation of aPTT clotting time) [4] | inhibition of intrinsic pathway of coagulation (prolongation of aPTT clotting time) ([4]; listed as L26R KD1) | fold stronger binding than WT KD1 (Human plasmin [6]) | fold stronger binding to plasmin than WT KD1 (Human plasmin [2]) | Kd (Human plasmin [8]) | fold difference of Kd against WT KD1 (Human plasmin [8]) | fold stronger binding than the R15K mutant (Human plasmin [6])
Wild type first Kunitz-type proteinase inhibitor domain of human TFPI-2 (KD1) (other, also called WTKD1; WT KD1) DAAQEPTGNNAEICLLPLDYGPCRALLLRYYYDRYTQSCRQFLYGGCEGNANNFYTWEACDDACWRIEKVPKV | ~80 nM | apparently no displacement of bound inhibitor; also recorded: not any significant substrate induced displacement of inhibitor | Complete inhibition | prolongation of the aPTT; also recorded: inhibit the intrinsic pathway of coagulation | 67-70% | inhibits both kallikrein and factor XIa | inhibits both kallikrein and factor XIa | 22 nM | 22 nM |  |  |  |  |  |  |  | 
KD1 L17R mutant (L26R in KD1 numbering) (other, The His tag was removed; also called KD1 L26R; L26R KD1) DAAQEPTGNNAEICLLPLDYGPCRARLLRYYYDRYTQSCRQFLYGGCEGNANNFYTWEACDDACWRIEKVPKV | ~80 nM |  | Complete inhibition |  | 67-70% |  |  | 6 nM |  | approximately 4 fold | no inhibition (prolongation) of aPTT; also recorded: loses activity as an anticoagulant; also recorded: ineffective | no effect on clotting | ~4 fold |  |  |  | 
KD1 R15K mutant (R24K in KD1 numbering) (other, Made from KD1 by site-directed mutagenesis, with the His tag removed; also called R24K mutant) DAAQEPTGNNAEICLLPLDYGPCKALLLRYYYDRYTQSCRQFLYGGCEGNANNFYTWEACDDACWRIEKVPKV |  |  |  |  |  |  |  | 10 nM |  |  |  |  |  | two-fold different | 9 to 11 nM and 10 nM | 2 fold | 
KD1 R15K/L17R double mutant (R24K/L26R in KD1 numbering) (other, Made from KD1 by site-directed mutagenesis, with the His tag removed) DAAQEPTGNNAEICLLPLDYGPCKARLLRYYYDRYTQSCRQFLYGGCEGNANNFYTWEACDDACWRIEKVPKV |  |  |  |  |  |  |  | 3 nM |  |  |  |  | 7 fold |  | 3 nM |  | ~2 fold
